# Data taken from the nanobody polyreactivity screen of Harvey et al. (2022).
# Assay: yeast display, Sf9 membrane polyspecificity reagent, FACS + sequencing; frameworks hold sequencing errors
# In short: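 Polyreactivity labels are assigned by the sorting gate from which each nanobody was recovered. The gates were low and high (top ~1%), set on anti-HA fluorescence for expression and streptavidin fluorescence for reagent binding. Before sorting, galactose-induced (36–48 hours) yeast display cells were stained for 1 hour at 4 °C with 10% biotinylated, detergent-solubilized Sf9 membrane reagent.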
row,Sequence,polyreactivity (PSR sort gate)
1,QVQLVESGGGLVQAGGSLRLSCAASGSTFPYYAMGWYRQAPGKERELVAAITSSASTYYADSVKGRFTISRDNAKNTVYLQMNSLKPEDTAVYYCAVRSPYRLSRWRVGYWGQGTQVTVSS,high polyreactivity
2,QVPLVESGGGLVQAGGSLRLSCAASGRSFTSNAMGWYRQAPGKEREFVAAITIRGGSTYYADSVKGRFTISRDNATNTVYLQMHSLKPEDTALYYCAVGRRKTWGDYWGQGTQVTVSS,high polyreactivity
3,QVQLVESGGGLVQAGGSLRLSCAASGITFADYAMGRYRQAPGKERELVAAISSGTSTYYADSVKGRFTISPDNAKNTVYLQMNSLKPEDTAVYYFYARYWGRVPPPAYDPRRYWGQGTQVTVSS,high polyreactivity
4,QVQLVESGGGLVQAGGSLRLSCASSGRTFWFYTMGWYRQAPGKERELVAAISSGGSTNYADSVKGRFTISRDNAKNTVYLQMNSLKPEDTAVYYCNKPPPNRGRYDYWGQGTQVTVSS,low polyreactivity
5,QVQLVESGGGLVQAGGSLRLSCAASGFTFVKNAMGWYRQAPGNERELVAAISQSGGSTYYADSVKGRFTISRDNAKNTVYLQMNSLKPEDTAVYYCAATYYTYWGYRDYYWGQGTQVTVSS,high polyreactivity
6,QVQLLESGGGVVQAGGSLRLSCAASGFTFLYNTMGGYRQAPGKVRELVAAISIRGGSTYYADSVKGRFTISRDNAKNTVYLQMNSLKPEDNAVYYCAARTPTPASRSRVYYWGHGTQVTVSS,high polyreactivity
7,QVQLVESGGGLVQAGGSLRLSCAASGRTFGRYAMGWSRQAPGKERELVAAIRYTGGSTYADSVKGRFTISRDNAKNTVYLQMNSLKPEDTAVYYCAVLFYNNFGYWGQGTQVTVSS,low polyreactivity
8,QVQLVESGGGLVEAGGTLRLSCAASGSIFPINAMGWYRQAPGKQWELVAAITVSDGRTYYADSVKGRFTISRDTAKNTVYLQMNSLKPEDTAVYYCAKSSHAREYYYWGQGNQVTVSS,low polyreactivity
9,QVQLVESGGGLVQAGGSLRLSCAASGRTFSVNDMGWYRQAPGKERELVAAISFSGGSTYYADSVKGRFTISRDNAKNSVYLQMNSLKPEDTEVYYCAAEAYASCFYVITGFGIYDYWGQGTQVTVSS,high polyreactivity
10,QVQLVESGGGLVQAGGSLRLSCAASGSIFGVYAMGWYRQAPGKERELVAVITYRDGSTYYADSVKGRFTISRVNAKNTVYLQMNSLKPEDSAVYYCAADSYLGWHSDYGVEYYYWGQGTQVTVSS,low polyreactivity
11,QVQLVESGGGLVQAGGSLRLSCAASGSTFTGYAMGWYRQAPGKERELVAAISISGGRTFYADSVKGRFTISRDNAKNTVYLQKNSLKPEDTAVSYCAASLRGSKYSFDYWGQGTQVTVSS,high polyreactivity
12,QVQLVESGGGLVQAGGSLRLSCAASGSIFQRYAMGWYRQAPGKEREFVAAISGRGGSTYYADSVKGRFTISRDNAKNTVYLQMNSLKPEDTAVYYCADDSSRFYGRPRYYYWGQGTQVTVSS,high polyreactivity
13,QVQLVESGGGLVQAGGSLRLSCAASGSTIYRNTMGWYRQAPGKERELVAAISRSGSSTYYADSVKGRFTISRDNAKNTVFLQINSLKPEDTAVYYCAKEGLSYRYYYWGQGTQLTVSS,high polyreactivity
14,QVQHVESRGGLVQAGGSLRLSCAASGRIFTGYAMGWYRQAPGKERELVAAITASGGNTYYADSVKGRFTISRVNAKNTVYLQMNSLTPEDTAVFYCAADFYYYKIQYAYWGQGTQVTVSS,low polyreactivity
15,QVQLVESGGGLVQAGGSLRLRCAASGRYAMGWYRQAPGKEREFVARITWSGGSTYYADSVKGRFTISRDNAKNTVYLQMNSLNPEDTAVYYCAKVSRRTDYYYWGQGTQVTVSS,high polyreactivity
16,QVQLVESGGGLVQAGGSLRLSCAASGYTFRYYAMGWYRQAPVKERELVARITGRAGSTYYADSVKGRFTISRDNAKNTVYLQMNSLKPEDTAVYYCAASIREGFYWGQGTQVTVSS,high polyreactivity
17,QVQLVESGGGLVQAGGSLRLSCAASGRTIWRYGMGWYRQAPGKERELVAAITDSGDSTYYADSVKGRFTISRDNAKNTVYLQMNSLKPEDTAVYYCAASDVVFALNGYYPGEDDYWGQGTQVTVSS,low polyreactivity
